target: HLA-A*02:01 (Homo sapiens, UniProt P04439, D140Y/D185E/D98H/E176V/E277Q/G131W/G231S/I119V/I121R/I166T/I218V/L300P/L318F/N151K/N90K/P208A/P217A/Q86G/Q94H/R138H/R169H/T345S); test: MHC binding assay (UV-ligand exchange, anti-β2m ELISA, peptide exchange yield); settings: binding to HLA-A*02:01
Source text: Candidate peptides for T cell based therapies according to the present invention were further tested for their MHC binding capacity (affinity). The individual peptide-MHC complexes were produced by UV-ligand exchange, where a UV-sensitive peptide is cleaved upon UV-irradiation, and exchanged with the peptide of interest as analyzed. Only peptide candidates that can effectively bind and stabilize the peptide-receptive MHC molecules prevent dissociation of the MHC complexes. To determine the yield of the exchange reaction, an ELISA was performed based on the detection of the light chain (β2m) of stabilized MHC complexes. The assay was performed as generally described in Rodenko et al. (Rodenko et al., 2006).
96 well MAXISorp plates (NUNC) were coated over night with 2 ug/ml streptavidin in PBS at room temperature, washed 4× and blocked for 1h at 37° C. in 2% BSA containing blocking buffer. […] Peptide-MHC monomers of the UV-exchange reaction were diluted 100 fold in blocking buffer. Samples were incubated for 1 h at 37° C., washed four times, incubated with 2 ug/ml HRP conjugated anti-β2m for 1h at 37° C., washed again and detected with TMB solution that is stopped with […]. Absorption was measured at 450 nm. Candidate peptides that show a high exchange yield (preferably higher than 50%, most preferred higher than 75%) are generally preferred for a generation and production of antibodies or fragments thereof, and/or T cell receptors or fragments thereof, as they show sufficient avidity to the MHC molecules and prevent dissociation of the MHC complexes.

| Substance | Peptide exchange (MHC class I binding score, peptide exchange yield) |
| --- | --- |
| 4 (GIMEHITKI; listed as Homo sapiens) [compound 4] | “++++” (>75% = ++++) |
| 6 (VLVSDGVHSV; listed as Homo sapiens) [compound 6] | “+++” (>50 = +++) |
| 12 (SLWPDPMEV; listed as Homo sapiens) [compound 12] | “+++” (>50 = +++) |
| 15 (VLLTFKIFL; listed as Homo sapiens) [compound 15] | “++” (>20% = ++) |
| 16 (VLFQGQASL; listed as Homo sapiens) [compound 16] | “+++” (>50 = +++) |
| 22 (IMEENPGIFAV; listed as Homo sapiens) [compound 22] | “+++” (>50 = +++) |
| 26 (ALLELAEEL; listed as Homo sapiens) [compound 26] | “+++” (>50 = +++) |
| 28 (QLLDETSAITL; listed as Homo sapiens) [compound 28] | “+++” (>50 = +++) |
| 32 (KLDDLTQDLTV; listed as Homo sapiens) [compound 32] | “++” (>20% = ++) |
| 35 (KINDTIYEV; listed as Homo sapiens) [compound 35] | “+++” (>50 = +++) |
| 41 (SLMPHIPGL; listed as Homo sapiens) [compound 41] | “+++” (>50 = +++) |
| 42 (VLLQKIVSA; listed as Homo sapiens) [compound 42] | “+++” (>50 = +++) |
| 43 (VLSSLEINI; listed as Homo sapiens) [compound 43] | “++” (>20% = ++) |
| 45 (SLWQDIPDV; listed as Homo sapiens) [compound 45] | “+++” (>50 = +++) |
| 46 (ILTEENIHL; listed as Homo sapiens) [compound 46] | “+++” (>50 = +++) |
| 50 (SLSELEALM; listed as Homo sapiens) [compound 50] | “+++” (>50 = +++) |
| 51 (LLPDLEFYV; listed as Homo sapiens) [compound 51] | “++++” (>75% = ++++) |
| 52 (FLLAHGLGFLL; listed as Homo sapiens) [compound 52] | “++++” (>75% = ++++) |
| 62 (VLLDVSAGQLLM; listed as Homo sapiens) [compound 62] | “++++” (>75% = ++++) |
| 63 (YLLPSGGSVTL; listed as Homo sapiens) [compound 63] | “++” (>20% = ++) |
| 67 (TLLAEALVTV; listed as Homo sapiens) [compound 67] | “+++” (>50 = +++) |
| 68 (SLMELPRGLFL; listed as Homo sapiens) [compound 68] | “++++” (>75% = ++++) |

Other lines, results leading:

| Peptide exchange (MHC class I binding score, peptide exchange yield) | Substance |
| --- | --- |
| “+++” (>50 = +++) | 1 (SLMEPPAVLLL; listed as Homo sapiens) [compound 1] |
| “++” (>20% = ++) | 9 (GAAKDLPGV; listed as Homo sapiens) [compound 9] |
| “++++” (>75% = ++++) | 10 (FLATFPLAAV; listed as Homo sapiens) [compound 10] |
| “+++” (>50 = +++) | 13 (YLMDESLNL; listed as Homo sapiens) [compound 13] |
| “+++” (>50 = +++) | 14 (AAYGGLNEKSFV; listed as Homo sapiens) [compound 14] |
| “++” (>20% = ++) | 18 (YLVAKLVEV; listed as Homo sapiens) [compound 18] |
| “+++” (>50 = +++) | 20 (RMIEYFIDV; listed as Homo sapiens) [compound 20] |
| “++” (>20% = ++) | 21 (VLDELDMEL; listed as Homo sapiens) [compound 21] |
| “+++” (>50 = +++) | 23 (VLLDDIFAQL; listed as Homo sapiens) [compound 23] |
| “++” (>20% = ++) | 24 (SLSDGLEEV; listed as Homo sapiens) [compound 24] |
| “+++” (>50 = +++) | 25 (FLPDEPYIKV; listed as Homo sapiens) [compound 25] |
| “+++” (>50 = +++) | 27 (ILADIVISA; listed as Homo sapiens) [compound 27] |
| “+++” (>50 = +++) | 29 (KMLGIPISNILMV; listed as Homo sapiens) [compound 29] |
| “+++” (>50 = +++) | 30 (LILDWVPYI; listed as Homo sapiens) [compound 30] |
| “++” (>20% = ++) | 31 (YLAPELFVNV; listed as Homo sapiens) [compound 31] |
| “++” (>20% = ++) | 33 (VLLSLLEKV; listed as Homo sapiens) [compound 33] |
| “+++” (>50 = +++) | 34 (ILVEADSLWVV; listed as Homo sapiens) [compound 34] |
| “+++” (>50 = +++) | 39 (SVAPNLPAV; listed as Homo sapiens) [compound 39] |
| “++” (>20% = ++) | 44 (ILDPISSGFLL; listed as Homo sapiens) [compound 44] |
| “++” (>20% = ++) | 47 (ILLSVPLLVV; listed as Homo sapiens) [compound 47] |
| “++++” (>75% = ++++) | 53 (KMIETDILQKV; listed as Homo sapiens) [compound 53] |
| “+++” (>50 = +++) | 54 (SLLEQGKEPWMV; listed as Homo sapiens) [compound 54] |
| “++++” (>75% = ++++) | 55 (SLLDLETLSL; listed as Homo sapiens) [compound 55] |
| “+++” (>50 = +++) | 57 (TLAELQPPVQL; listed as Homo sapiens) [compound 57] |
| “+++” (>50 = +++) | 59 (IMEDIILTL; listed as Homo sapiens) [compound 59] |
| “++” (>20% = ++) | 64 (YAAPGGLIGV; listed as Homo sapiens) [compound 64] |
| “+++” (>50 = +++) | 66 (FLDENIGGVAV; listed as Homo sapiens) [compound 66] |
| “+++” (>50 = +++) | 69 (FQLDPSSGVLVTV; listed as Homo sapiens) [compound 69] |
| “+++” (>50 = +++) | 70 (GLLDYPVGV; listed as Homo sapiens) [compound 70] |
